Source: US5814466, “Method for assaying for a substance that affects an SH2-phosphoraylated ligand regulatory system” (Mount Sinai Hospital Corporation, dated 1998)

B1: TrpE-PLC-SH2[N] (other)
chain: MQTQKPTLELLTCEGAYRDNPTALFHQLCGDRPATLLLESADIDSKDDLKSLLLVDSALRITALGDTVTIQALSGNGEALLALLDNALPAGVESEQSPNCRVLRFPPVSPLLDEDARLCSLSVFDAFRLLQNLLNVPKEEREAMFFGGLFSYDLVAGFEDLPQLSAENNCPDFCFYLAETLMVIDHQKKSTRIQASLFAPNEEEKQRLTARLNELRQQLTEAAPPLPVVSVPHMRCECNQSDEEFGGVVRLLQKAIRAGEIFQVVPSRRFSLPCPSPLAAYYVLKKSNPSPYMFFMQDNDFTLFGASPESSLKYDATSRQIEIWFHGKLGAGRDGRHIAERLLTEYCIETGAPDGSFLVRESETFVGDYTLSFWRNGKVQHCRIHSRQDAGTPKFFLTDNLVFDSLYDLITHYQQVPLRCNEFEMRLSEPV
B2: TrpE-GAP-SH2[N+3+C] (other)
chain: MQTQKPTLELLTCEGAYRDNPTALFHQLCGDRPATLLLESADIDSKDDLKSLLLVDSALRITALGDTVTIQALSGNGEALLALLDNALPAGVESEQSPNCRVLRFPPVSPLLDEDARLCSLSVFDAFRLLQNLLNVPKEEREAMFFGGLFSYDLVAGFEDLPQLSAENNCPDFCFYLAETLMVIDHQKKSTRIQASLFAPNEEEKQRLTARLNELRQQLTEAAPPLPVVSVPHMRCECNQSDEEFGGVVRLLQKAIRAGEIFQVVPSRRFSLPCPSPLAAYYVLKKSNPSPYMFFMQDNDFTLFGASPESSLKYDATSRQIEITNQWYHGKLDRTIAEERLRQAGKSGSYLIRESDRRPGSFVLSFLSQMNVVNHFRIIAMCGDYYIGGRRFSSLSDLIGYYSHVSCLLKGEKLLYPVAPPEPVEDRRRVRAILPYTKVPDTDEISFLKGDMFIVHNELEDGWMWVTNLRTDEQGLIVEDLVEEVGREEDPHEGKIWFHGKISKQEAYNLLMTVGQVCSFLVRPSDNTPGDYSLYFRTNENIQRFKICPTPNNQFMMGGRYYNSIGDIIDHYRKEQIVEGYYLKEPVPMQD
B3: TrpE-PLC-SH2[N+C] (other)
chain: MQTQKPTLELLTCEGAYRDNPTALFHQLCGDRPATLLLESADIDSKDDLKSLLLVDSALRITALGDTVTIQALSGNGEALLALLDNALPAGVESEQSPNCRVLRFPPVSPLLDEDARLCSLSVFDAFRLLQNLLNVPKEEREAMFFGGLFSYDLVAGFEDLPQLSAENNCPDFCFYLAETLMVIDHQKKSTRIQASLFAPNEEEKQRLTARLNELRQQLTEAAPPLPVVSVPHMRCECNQSDEEFGGVVRLLQKAIRAGEIFQVVPSRRFSLPCPSPLAAYYVLKKSNPSPYMFFMQDNDFTLFGASPESSLKYDATSRQIEIWFHGKLGAGRDGRHIAERLLTEYCIETGAPDGSFLVRESETFVGDYTLSFWRNGKVQHCRIHSRQDAGTPKFFLTDNLVFDSLYDLITHYQQVPLRCNEFEMRLSEPVPQTNAHESKEWYHASLTRAQAEHMLMRVPRDGAFLVRKRNEPNSYAISFRAEGKIKHCRVQQEGQTVMLGNSEFDSLVDLISYYEKHPLYRKMKLRYPI

Tests used:
[1] = molecular target: T1, PDGF receptor from BB-PDGF-stimulated Rat-2 cells (activated PDGF-R) (rat (endogenous protein of Rat-2 cells), UniProt Q05030, phosphotyrosine (after stimulation with 75 nM BB-PDGF; sites not stated)); experiment: pull-down from lysate of PDGF-stimulated Rat-2 PLCγ1 cells; competitor: overexpressed cellular PLCγ1
Excerpt: Only a minor fraction of activated PDGF-R complexes with PLCγ1 in vivo. A Rat-2 cell line was genetically modified to overexpress PLCγ1 by tenfold as compared with the endogenous enzyme (Rat-2 PLCγ1). There is a proportionate increase in the amount of PDGF-R precipitated with antibodies to PLCγ1 (anti-PLCγ1) after PDGF stimulation of Rat-2 PLCγ1 cells, in comparison with parental Rat-2 cells. If bacterial PLCγ1 SH2 domains bound to the same site(s) on the PDGF-R as did cellular PLCγ1, then overexpression of PLCγ1 should block binding of bacterial PLCγ1 SH2 domains to activated PDGF-R in vitro. To investigate this Rat-2 cells (FIG. 10, lanes 1, 2, 5 and 6) or a Rat-2 cell line that overexpressed PLCγ1 by tenfold (R2-PLCγ; lanes 3, 4, 7, 8) were stimulated with PDGF (lanes 1, 3, and 5–8) or maintained without PDGF (lanes 2 and 4). Cell lysates were mixed with immobilized TrpE-PLC-SH2[N] (lanes 1 to 4), TrpE-PLC-SH2[N+C] (lanes 5 and 7), or TrpE-GAP-SH2 [N+3+C] ([…]). Samples were washed, separated by gel electrophoresis, and immunoblotted with anti-P.Tyr. Similar results were obtained by blotting with anti-PDGF-R.

[2] = molecular target: T1, PDGF receptor from BB-PDGF-stimulated …; experiment: pull-down of immobilised TrpE fusion from lysate of PDGF-stimulated Rat-2 cells, immunoblot
Procedure: The following procedure was used to investigate binding of TryE fusion proteins that contain GAP, Src, or Crk SH2 domains to PDGF-R in lysates of stimulated Rat-2 cells. Serum-starved Rat-2 cells were stimulated for 5 min at 37° C. with 75 nM BB-PDGF, lysed, and mixed with the indicated immobilized TrpE bacterial fusion proteins. Complexes were washed, resolved on 7.5% SDS-polyacrylamide gels and analyzed by immunoblotting with anti-P.Tyr (8 hour exposure) or with anti-PDGF-R (18 hour exposure).
Because GAP also associates with the PDGF-R, experiments were carried out using bacterial GAP SH2 sequences (see FIG. 7). The GAP SH2[N] domain bound the PDGF-R in a lysate of PDGF-stimulated cells (FIG. 9), but not in unstimulated cells.

Binder | PDGF-R associated, relative to parental PDGF-stimulated Rat-2 cells [1] | fold more efficient binding than expected from the individual SH2 domains [2] [fold]
B1 | 0.33 fraction of the amount from parental Rat-2 cells | –
B2 | – | 3
B3 | 0.33 fraction of the amount from parental Rat-2 cells | –
